Experimental data published in publication PMC11797554 (2024).

Legend:
SCRM KiDoK peptide [1] = target: T1, SCRM KiDoK peptide (Arabidopsis, UniProt Q9LSE2, biotin); test: BLI; in presence of kC9
SCRM KiDoK peptide [2] = target: T1, SCRM KiDoK peptide; test: BLI; in presence of kC9; kinetic fit
SCRM KiDoK peptide [3] = target: T1, SCRM KiDoK peptide; test: BLI

B1: MPK6ΔNt (29 to 305) (domain or fragment)
chain: QMPGIENIPATLSHGGRFIQYNIFGNIFEVTAKYKPPIMPIGKGAYGIVCSAMNSETNESVAIKKIANAFDNKIDAKRTLREIKLLRHMDHENIVAIRDIIPPPLRNAFNDVYIAYELMDTDLHQIIRSNQALSEEHCQYFLYQILRGLKYIHSANVLHRDLKPSNLLLNANCDLKICDFGLARVTSESDFMTEYVVTRWYRAPELLLNSSDYTAAIDVWSVGCIFMELMDRKPLFPGRDHVHQLRLLMELIGTPSEEELEFLNENAKRYIRQLPPYPRQSITDKFPTVHPLAIDLIEKMLTFDPRRRITVLDALAHPYLNSLHDISDEPECTIPFNFDFENHALSEEQMKELIYREALAFNPEYQQ
A koff (SCRM KiDoK peptide [1]) of 0.0178 s⁻¹, a Kd (SCRM KiDoK peptide [2]) of 1.05 µM and a koff (SCRM KiDoK peptide [3]) of 0.0327 s⁻¹ were found for B1 in this work.
